Test results published in patent US20210236614A1.
Values joined by “and” are separate entries in the source; they are usually repeats but may differ in a detail not shown here. Equal entries are not always repeated.

Tests used:
Assay in all cases: ELISA, His-PD1 on nickel plate, conjugate only control
[1] = target: His tagged mouse PD1 (Sino) (mouse) (UniProt Q02242)
[2] = target: His tagged rhesus monkey PD1 (Sino) (rhesus monkey) (UniProt B0LAJ2)
[3] = target: His tagged rat PD1 (Sino) (rat) (UniProt D3ZIN8)
Chain of His tagged rat PD1 (Sino) (rat) (D3ZIN8 entry or part of it limits assumed, form in doubt): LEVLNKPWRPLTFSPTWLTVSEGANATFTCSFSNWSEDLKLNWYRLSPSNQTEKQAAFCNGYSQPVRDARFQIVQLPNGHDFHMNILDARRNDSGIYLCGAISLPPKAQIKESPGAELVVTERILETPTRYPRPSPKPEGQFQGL

[4] = target: His tagged canine PD1 (Sino) (canine)

Chain of His tagged mouse PD1 (Sino) (mouse) (Q02242 25-167 limits assumed): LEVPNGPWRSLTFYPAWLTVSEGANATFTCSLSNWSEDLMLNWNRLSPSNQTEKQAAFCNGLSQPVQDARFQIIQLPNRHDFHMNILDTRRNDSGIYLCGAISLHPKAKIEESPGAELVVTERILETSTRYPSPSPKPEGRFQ
Chain of His tagged rhesus monkey PD1 (Sino) (rhesus monkey) (B0LAJ2 entry or part of it limits assumed, form in doubt): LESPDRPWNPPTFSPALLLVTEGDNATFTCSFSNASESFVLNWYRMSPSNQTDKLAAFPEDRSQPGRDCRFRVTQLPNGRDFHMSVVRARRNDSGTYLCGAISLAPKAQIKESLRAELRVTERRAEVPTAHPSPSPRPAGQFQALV

OD [1]: 0.066 OD and 0.064 OD
OD [2]: 0.063 OD and 0.058 OD
OD [3]: 0.055 OD
OD [4]: 0.059 OD and 0.06 OD
Substance: horseradish peroxidase-labeled anti-rabbit antibody (conjugate only control)
